From the supplement of paper PMC10126150
± gives the standard deviation of the averaged measurements.

Test system: ATP
Test: switch fluorescence ratio, 500 uM ATP over buffer (Cy3 cluster intensity, sum of 5 cycles each) (fold (ratio)); higher = stronger signal-on switching upon ATP binding; sequences stand for … in TCGTCGGCAGCGTCAGATGTGTATAAGAGACAGTTTTTTTTTTTTTTTTTTTTTTTTT…TC
Conditions: aptamer strand: ATP DNA aptamer (quencher-CACCTGGGGGAGTATTGCGGAGGAAGG + anchor), 100 nM annealed; ATP concentration: 500 uM
Procedure, shortened: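 Between each of five buffer/ATP cycles, the flow-cell was stripped with NaOH and re-annealed. Each cycle imaged Cy3-labelled switching-strand clusters, annealed to 100 nM quencher-labelled ATP aptamer on a modified Illumina MiSeq flow-cell, first in selection buffer and then after 15 min with 500 uM ATP at 22 °C. The fluorescence ratio is summed target-cycle over summed buffer-cycle Cy3 intensity per cluster, averaged per switch-domain sequence, with clusters outside 100-1000 RFU excluded.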
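Also: ATP exposure 15 min at 22 °C before imaging.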

Sequence | switch fluorescence ratio
GAGGGAAGGT | 1.02 ± 0.02
GAGGGAAGTT | 1.04 ± 0.037
GAGGGACGGC | 0.999 ± 0.059
GAGGGAGATT | 1.02 ± 0.05
GAGGGAGCAG | 1.01 ± 0.017
GAGGGAGGCT | 1.04 ± 0.015
GAGGGAGGTC | 0.968 ± 0.043
GAGGGAGTAT | 0.9959 ± 0.0027
GAGGGATAAA | 1.003 ± 0.0018
GAGGGATCAG | 0.994 ± 0.011
GAGGGATGGT | 1.01 ± 0.029
GAGGGATTTG | 1 ± 0.03
GAGGGCACAT | 1.03 ± 0.05
GAGGGCAGGG | 0.978 ± 0.034
GAGGGCCATT | 0.978 ± 0.017
GAGGGCCGGT | 1.03 ± 0.032
GAGGGCTCTT | 1.05 ± 0.029
GAGGGGAAGG | 0.958 ± 0.057
GAGGGGACGA | 0.998 ± 0.011
GAGGGGACGG | 0.996 ± 0.015
GAGGGGAGTG | 1.03 ± 0.064
GAGGGGCATG | 1.01 ± 0.032

Sequence | switch fluorescence ratio
GAGGGGCTAA | 0.9516 ± 0.0088
GAGGGGCTTC | 1 ± 0.016
GAGGGGGAGG | 0.982 ± 0.019
GAGGGGGATT | 0.991 ± 0.028
GAGGGGGCTC | 1.04 ± 0.028
GAGGGGGGCC | 1.01 ± 0.06
GAGGGGGGTA | 0.989 ± 0.02
GAGGGGTATG | 1 ± 0.019
GAGGGGTGAG | 1.01 ± 0.041
GAGGGGTGGA | 0.996 ± 0.015
GAGGGGTGTA | 0.9896 ± 0.0085
GAGGGGTTGA | 1.01 ± 0.077
GAGGGTAGGT | 1.06 ± 0.063
GAGGGTAGTC | 1.004 ± 0.007
GAGGGTATGG | 1.014 ± 0.0075
GAGGGTCCGG | 0.991 ± 0.035
GAGGGTTAAT | 1.02 ± 0.02
GAGGGTTTTT | 1 ± 0.021
GAGGTAAGAT | 1.02 ± 0.032
GAGGTACAAA | 1.013 ± 0.01
GAGGTACGGG | 0.98966 ± 0.00039
GAGGTACTAG | 1.02 ± 0.0023

Sequence | switch fluorescence ratio
GAGGTCGCGC | 1.01 ± 0.043
GAGGTGTCG | 1.04 ± 0.041
GAGGTTAGAG | 0.9796 ± 0.0026
GAGGTTAGGA | 1 ± 0.012
GAGGTTCATT | 1.09 ± 0.085
GAGGTTGATC | 0.983 ± 0.056
GAGGTTGTAG | 0.994 ± 0.021
GAGGTTTCAC | 0.965 ± 0.023
GAGGTTTCGT | 0.988 ± 0.02
GAGGTTTCTA | 0.993 ± 0.038
GAGTAACCTG | 1.01 ± 0.071
GAGTAAGCAA | 1.64 ± 0.084
GAGTACGCTA | 3.07 ± 1.2
GAGTACTCCT | 1.04 ± 0.04
GAGTACTCGT | 1.03 ± 0.034
GAGTAGCGGA | 0.999 ± 0.042
GAGTATAGAT | 1.001 ± 0.0034
GAGTATGGGT | 1 ± 0.021
GAGTCAATAG | 2.98 ± 0.047
GAGTCACAGT | 1 ± 0.057
GAGTCAGAAT | 1.01 ± 0.013
GAGTCATGTG | 1.01 ± 0.037

Sequence | switch fluorescence ratio
GAGTCCATGG | 0.985 ± 0.013
GAGTCGGCGG | 0.9893 ± 0.0023
GAGTCGGGGG | 0.985 ± 0.01
GAGTCGGGGT | 1.01 ± 0.027
GAGTGAGGGC | 0.9957 ± 0.003
GAGTGAGTAC | 1 ± 0.055
GAGTGAGTAT | 0.9731 ± 0.0071
GAGTGATTTA | 1.01 ± 0.035
GAGTGCCTGG | 1.02 ± 0.012
GAGTGCTTAA | 0.971 ± 0.022
GAGTGGCTCT | 0.968 ± 0.026
GAGTGGGAGG | 1.02 ± 0.026
GAGTGGGCCT | 0.963 ± 0.044
GAGTGGTCAG | 0.9638 ± 0.0077
GAGTGTATTT | 1.02 ± 0.016
GAGTTAAAAG | 1.01 ± 0.02
GAGTTAGTAA | 0.999 ± 0.045
GAGTTAGTTA | 0.989 ± 0.028
GAGTTATGTA | 0.997 ± 0.016
